Experimental data: patent publication US5856155, “Compounds and related methods for modulating potassium ion channels and assays for such compounds” (The Johns Hopkins University School Of Medicine, dated 1999)

T1: NH2-terminal domain of DRK1 (a.a. 1-182) (Kv2.1) (rat, UniProt P15387)
T1 sequence: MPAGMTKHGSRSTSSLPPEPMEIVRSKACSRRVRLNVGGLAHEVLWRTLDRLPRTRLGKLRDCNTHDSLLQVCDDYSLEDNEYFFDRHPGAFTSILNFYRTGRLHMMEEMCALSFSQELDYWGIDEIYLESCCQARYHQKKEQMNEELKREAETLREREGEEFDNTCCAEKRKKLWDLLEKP

T2: NH2-terminal domain of NGK2b (a.a. 1-180) (Kv3.1) (rat, UniProt P25122)
T2 sequence: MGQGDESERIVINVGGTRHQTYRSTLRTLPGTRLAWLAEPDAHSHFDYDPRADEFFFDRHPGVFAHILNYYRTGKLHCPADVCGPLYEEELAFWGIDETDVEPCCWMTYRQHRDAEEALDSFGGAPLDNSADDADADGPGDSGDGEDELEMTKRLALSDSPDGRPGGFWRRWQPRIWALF

T3: NH2-terminal domain of rshal1 (a.a. 1-228) (Kv4.2) (rat, UniProt Q63881)
T3 sequence: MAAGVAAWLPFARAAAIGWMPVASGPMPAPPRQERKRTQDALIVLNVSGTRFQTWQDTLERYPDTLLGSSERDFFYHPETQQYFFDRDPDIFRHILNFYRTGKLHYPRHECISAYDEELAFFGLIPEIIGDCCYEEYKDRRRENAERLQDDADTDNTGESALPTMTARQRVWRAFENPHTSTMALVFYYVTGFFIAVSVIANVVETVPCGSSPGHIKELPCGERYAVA

T4: NH2-terminal domain of Drosophila Shaw2 (Kv3 subfamily) (Drosophila, UniProt P17972)
T4 sequence: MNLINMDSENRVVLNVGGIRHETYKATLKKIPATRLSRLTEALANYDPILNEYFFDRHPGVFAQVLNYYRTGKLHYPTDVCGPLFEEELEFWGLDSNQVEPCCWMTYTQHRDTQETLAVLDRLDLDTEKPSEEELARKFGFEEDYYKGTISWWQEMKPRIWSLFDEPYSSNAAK

T5: NH2-terminal domain of Drosophila Shal2 (Kv4 subfamily) (Drosophila, UniProt P17971-1)
T5 sequence: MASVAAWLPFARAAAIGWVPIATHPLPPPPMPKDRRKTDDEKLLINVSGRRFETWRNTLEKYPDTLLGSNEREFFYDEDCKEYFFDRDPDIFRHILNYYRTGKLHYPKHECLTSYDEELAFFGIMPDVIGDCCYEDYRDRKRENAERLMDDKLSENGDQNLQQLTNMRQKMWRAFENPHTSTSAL

B1: Kvβ1 (a.a. 1-401) (other)
chain: MQVSIACTEHNLKSRNGEDRLLSKQSSTAPNVVNAARAKFRTVAIIARSLGTFTPQHHISLKESTAKQTGMKYRNLGKSGLRVSCLGLGTWVTFGGQISDEVAERLMTIAYESGVNLFDTAEVYAAGKAEVILGSIIKKKGWRRSSLVITTKLYWGGKAETERGLSRKHIIEGLKGSLQRLQLEYVDVVFANRPDSNTPMEEIVRAMTHVINQGMAMYWGTSRWSAMEIMEAYSVARQFNMIPPVCEQAEYHLFQREKVEVQLPELYHKIGVGAMTWSPLACGIISGKYGNGVPESSRASLKCYQWLKERIVSEEGRKQQNKLKDLSPIAERLGCTLPQLAVAWCLRNEGVSSVLLGSSTPEQLIENLGAIQVLPKMTSHVVNEIDNILRNKPYSKKDYRS

Legend:
Kvβ1 (a.a. 1-401) = target: B1; test: cell-based or functional assay
ShBΔ(6-46) = ShBΔ(6-46) (Drosophila, UniProt P08510); test: cell-based or functional assay
[1] = target: T6, COOH-terminal domain of RCK4 (CRCK4, a.a. 566-651) (rat, UniProt P15385); test: yeast two-hybrid, growth on medium lacking histidine
Excerpt: (§1) FIG. 6B depicts the results of a yeast two-hybrid assay wherein YGH1 yeast cells were transformed by different pairwise combinations of the two-hybrid constructs that express either fusion proteins of the DNA binding domain of GAL4 or the transcription activation domain of GAL4. […] In the middle panel, the transformants carrying the two different fusion proteins were first selected by dextrose synthetic drop-out medium with no supplement of leucine and tryptophan (SD, −leu, −trp, +his) to ensure that in different combinations the transformants have both plasmids. In the lower panel, identical numbers of cells in each combination were also dotted on the same medium without histidine (SD, −leu, −trp, −his). The transformants were allowed to grow at 30° C. for 65 hours.
(§2) In the case of Kvβ1, its subfamily-specific association with the NH_2-terminal domains of Kv1 α-subunits is essential for the Kvβ1-mediated inactivation. […] What is not known, however, is whether the failure to detect the Kv2.1-Kvβ2 complex is due to the incompatibility of these two subunits to interact or their limited overlapping expression in vivo. To test the specificity of the Kvβ2-α (interaction, pairwise combinations of Kvβ2 and the NH_2-terminal domains of eight different α-subunits were analyzed in the yeast two hybrid system. The eight α-subunits included were: ShB (Kamb et al., *Cell*, 50, 405–413 (1987); Pongs et al., *EMBO J.*, 7, (1988); Tempel et al., *Science*, 237, 770–775, (1987), Shabll, Shaw2, and Shal2 from Drosophila (Butler et al., *Nucleic Acids Res.*, 18, 2173–2174 (1990); Kv1.4 (or RCK4) (Stuhmer et al., *EMBO J.*, 8, 3235–3244 (1989), Kv2.1 (or DPK1) (Frech et al., *Nature*, 340, 642–645 (1989), Kv3.1 (or NGK2b) (Yokoyama et al., *FEBS Lett.*, 259, 37–42 (1989), and Kv4.2(or rShal1) (Baldwin et al., *Neuron*, 7, 471–483 (1991); Roberds et al., *Proc. Natl. Acad. Sci. USA*, 88, 1798–1802 (1991)) from rat.

[2] = target: T1, NH2-terminal domain of DRK1 (a.a. …); test: as above
Excerpt: as §1, §2

[3] = target: T2, NH2-terminal domain of NGK2b (a.a. …); test: as above
Excerpt: as §1, §2

[4] = target: T3, NH2-terminal domain of rshal1 (a.a. …); test: as above
Excerpt: as §1, §2

[5] = target: GAL4 DNA binding (DB) domain alone (Saccharomyces cerevisiae (strain ATCC …, UniProt P04386)); test: yeast two-hybrid control, growth on medium lacking histidine
Excerpt: (§3) Figure 2: FIG. 2 depicts the results of a yeast two-hybrid assay wherein YGH1 yeast cells were transformed by different pairwise combinations of the two-hybrid constructs that express either fusion proteins of the DNA binding domain of GAL4 or the transcription activation domain of GAL4. […] In the middle panel, the transformants carrying the two different fusion proteins were first selected by dextrose synthetic drop-out medium with no supplement of leucine and tryptophan (SD, −leu, −trp, +his) to ensure that in different combinations the transformants have both plasmids. In the lower panel, the identical number of cells in each combination were also dotted on the same medium without histidine (SD, −leu, −trp, −his). The transformants were allowed to grow at 30° C. for 65 hours.
(§4) Cytoplasmic NH_2— and COOH— terminal domains of different α-subunits were subcloned and expressed as fusion proteins of the GAL4 DNA binding (DB) domain. Kvβ1 was expressed as a fusion protein of either the GAL4 DNA binding (DB) domain or transcription activation (TA) domain. […] When Kvβ1 was coexpressed with the NH_2-terminal domain of RCK4 (NRCK4) (a.a. 1–306; an α-subunit sensitive to Kvβ1-mediated inactivation), the yeast transformants grew on a selective medium (FIG. 2, No. 1).

[6] = target: T7, GAL4 transcription activation (TA) domain alone (Saccharomyces cerevisiae (strain ATCC …, UniProt P04386)); test: as above
Excerpt: as §3, §4

[7] = target: T4, NH2-terminal domain of Drosophila Shaw2 …; test: yeast two-hybrid, growth on medium lacking histidine
Excerpt: as §1, §2

[8] = target: T5, NH2-terminal domain of Drosophila Shal2 …; test: as above
Excerpt: as §1, §2

[9] = target: T7, GAL4 transcription activation (TA) …; test: yeast two-hybrid control (FIG. 6A, No. 1), growth on medium lacking histidine
Excerpt: as §1, with “6A” for “6B”
To begin the test, the NH_2-terminal domain and COOH-terminal domain of Kv1.4 (RCK4) were subcloned. These truncated cytoplasmic fragments, i.e., the NH_2-terminal domain (a.a. 1–306) and COOH-terminal domain (a.a. 566–651), were expressed individually with Kvβ2 as GAL4 fusion proteins. Using this methodology, if Kvβ2 were to interact with one or both truncated Kv1.4 fragments, the resultant interaction(s) would confer the ability upon the yeast transformants to grow on synthetic medium lacking histidine. Table 2 below defines the conditions of the yeast two-hybrid system in FIG. 6A.

[10] = target: T6, COOH-terminal domain of RCK4 (CRCK4, …); test: yeast two-hybrid, growth on medium lacking histidine; similar results with a β-galactosidase assay
Excerpt: as §1, with “6A” for “6B”
To begin the test, the NH_2-terminal domain and COOH-terminal domain of Kv1.4 (RCK4) were subcloned. These truncated cytoplasmic fragments, i.e., the NH_2-terminal domain (a.a. 1–306) and COOH-terminal domain (a.a. 566–651), were expressed individually with Kvβ2 as GAL4 fusion proteins. […]
Similar results were obtained using a β-galactosidase assay (data not shown). Thus, like Kvβ1, Kvβ2 was determined to interact with the NH_2-terminal domain of the Kv1.4 α-subunit.

Binder | percent of recorded cells with fast inactivation, whole cell voltage clamp recording of transfected COS cells (Kvβ1 (a.a. 1-401)) | percent of recorded cells with fast inactivation, whole cell voltage clamp recording of transfected COS cells (ShBΔ(6-46)) | binding result [1] | binding result [2] | binding result [3] | binding result [4] | binding result [5] | binding result [6] | binding result [7] | binding result [8] | binding result [9] | binding result [10]
ΔKvβ2(39-367) (other) YRNLGKSGLRVSCLGLGTWVTFGGQITDEMAEHLMTLAYDNGINLFDTAEVYAAGKAEVVLGNIIKKKGWRRSSLVITTKIFWGGKAETERGLSRKHIIEGLKASLERLQLEYVDVVFANRPDPNTPMEEIVRAMTHVINQGMAMYWGTSRWSSMEIMEAYSVARQFNLIPPICEQAEYHMFQREKVEVQLPELFHKIGVGAMTWSPLACGIVSGKYDSGIPPYSRASLKGYQWLKDKILSEEGRRQQAKLKELQAIAERLGCTLPQLAIAWCLRNEGVSSVLLGASNAEQLMENIGAIQVLPKLSSSIVHEIDSILGNKPYSKKDYRS | 22.5 % of cells | 22.5 % of cells |  |  |  |  |  |  |  |  |  | 
B1 |  |  | no binding | no binding | no binding | no binding | no binding | no binding |  |  |  | 
ΔKvβ2(39-316) (other) YRNLGKSGLRVSCLGLGTWVTFGGQITDEMAEHLMTLAYDNGINLFDTAEVYAAGKAEVVLGNIIKKKGWRRSSLVITTKIFWGGKAETERGLSRKHIIEGLKASLERLQLEYVDVVFANRPDPNTPMEEIVRAMTHVINQGMAMYWGTSRWSSMEIMEAYSVARQFNLIPPICEQAEYHMFQREKVEVQLPELFHKIGVGAMTWSPLACGIVSGKYDSGIPPYSRASLKGYQWLKDKILSEEGRRQQAKLKELQAIAERLGCTLPQLAIAWCLRNEG | 61 % of cells | 61 % of cells |  |  |  |  |  |  |  |  |  | 
Kvβ2 (a.a. 1-367) (other) MYPESTTGSPARLSLRQTGSPGMIYSTRYGSPKRQLQFYRNLGKSGLRVSCLGLGTWVTFGGQITDEMAEHLMTLAYDNGINLFDTAEVYAAGKAEVVLGNIIKKKGWRRSSLVITTKIFWGGKAETERGLSRKHIIEGLKASLERLQLEYVDVVFANRPDPNTPMEEIVRAMTHVINQGMAMYWGTSRWSSMEIMEAYSVARQFNLIPPICEQAEYHMFQREKVEVQLPELFHKIGVGAMTWSPLACGIVSGKYDSGIPPYSRASLKGYQWLKDKILSEEGRRQQAKLKELQAIAERLGCTLPQLAIAWCLRNEGVSSVLLGASNAEQLMENIGAIQVLPKLSSSIVHEIDSILGNKPYSKKDYRS |  |  |  | no binding | no binding | no binding |  |  | no binding | no binding | no binding | no binding
